Measured values reported in article PMC7793260, “MreC and MreD balance the interaction between the elongasome proteins PBP2 and RodA” (PLoS Genetics, 2020).

Legend:
Experiment in all cases: FRET or BRET; two-plasmid spectral FRET in E. coli LMC500 cells; mCherry fusion as acceptor, mKO fusion as donor; Gb4 medium, steady state at 28 C, 15 uM IPTG for two mass doublings, FAGA-fixed; acceptor FRET efficiency (EfA) by spectral unmixing
mKO-^MalF37PBP2 = target: T1, mKO-^MalF37PBP2 (E. coli, UniProt P02916 1-37; P0AD65 46-633); conditions: partners not purified
T1 construct: MalF of E. coli, the first 37 residues (cytoplasmic N-terminus and transmembrane helix), amplified from the MG1655 genome; PBP2 of E. coli excluding the first 45 residues (NT and TMH removed, periplasmic domain kept); also called PBP2 with the NT and TMH of MalF; source: E. coli LMC500, expressed from plasmid (15 uM IPTG), in fixed cells; not shown: mKO, N-terminal, kept
T1 chain (looked up): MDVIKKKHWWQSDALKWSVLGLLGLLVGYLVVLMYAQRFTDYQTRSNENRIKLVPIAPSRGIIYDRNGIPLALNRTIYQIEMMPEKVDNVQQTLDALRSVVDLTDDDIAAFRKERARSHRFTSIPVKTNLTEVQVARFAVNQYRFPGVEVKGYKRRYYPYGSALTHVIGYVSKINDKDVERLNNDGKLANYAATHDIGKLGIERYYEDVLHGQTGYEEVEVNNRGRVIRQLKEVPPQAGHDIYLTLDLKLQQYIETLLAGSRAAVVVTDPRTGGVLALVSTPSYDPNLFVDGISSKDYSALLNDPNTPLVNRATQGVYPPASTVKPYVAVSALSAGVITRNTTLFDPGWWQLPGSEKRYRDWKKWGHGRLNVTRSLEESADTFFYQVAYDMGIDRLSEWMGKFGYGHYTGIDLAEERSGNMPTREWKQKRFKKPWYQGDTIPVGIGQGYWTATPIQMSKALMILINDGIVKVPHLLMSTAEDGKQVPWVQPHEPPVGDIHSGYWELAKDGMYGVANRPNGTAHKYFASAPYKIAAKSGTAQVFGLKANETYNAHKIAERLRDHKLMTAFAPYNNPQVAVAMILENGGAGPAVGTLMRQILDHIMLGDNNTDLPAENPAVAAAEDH

mKO-PBP2^L61R = target: T2, mKO-PBP2^L61R (E. coli, UniProt P0AD65 1-633, L61R); conditions: partners not purified
T2 construct: PBP2 of E. coli with L61R (hyperactive variant); made from pWA004 by mutagenesis PCR; also called hyperactive PBP2^L61R; source: E. coli LMC500, expressed from plasmid (15 uM IPTG), in fixed cells; not shown: mKO, N-terminal, kept
T2 sequence (looked up): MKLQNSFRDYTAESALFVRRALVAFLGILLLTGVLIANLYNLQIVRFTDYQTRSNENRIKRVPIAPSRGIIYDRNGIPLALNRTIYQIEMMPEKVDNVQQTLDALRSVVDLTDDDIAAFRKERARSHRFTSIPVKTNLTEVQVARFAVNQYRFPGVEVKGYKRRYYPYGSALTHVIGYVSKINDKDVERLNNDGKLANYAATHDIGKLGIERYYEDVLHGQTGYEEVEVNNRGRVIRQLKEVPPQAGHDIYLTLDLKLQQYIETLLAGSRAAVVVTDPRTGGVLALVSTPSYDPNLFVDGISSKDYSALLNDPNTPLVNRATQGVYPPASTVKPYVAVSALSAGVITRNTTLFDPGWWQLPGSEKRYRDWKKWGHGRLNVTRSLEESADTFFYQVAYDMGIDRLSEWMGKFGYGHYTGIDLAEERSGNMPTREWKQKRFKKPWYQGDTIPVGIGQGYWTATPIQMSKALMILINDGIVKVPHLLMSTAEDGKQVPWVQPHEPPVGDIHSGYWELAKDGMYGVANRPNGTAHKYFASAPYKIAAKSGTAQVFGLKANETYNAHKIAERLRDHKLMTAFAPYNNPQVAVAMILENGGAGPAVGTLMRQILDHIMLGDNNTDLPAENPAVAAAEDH

[1] = target: T3, PBP2 (wild type), fused to mKO or to mCherry (E. coli, UniProt P0AD65 1-633); conditions: partners not purified
T3 construct: PBP2, peptidoglycan transpeptidase of the E. coli elongasome, wild type; mKO-PBP2 in all others; also called mKO-PBP2^WT; mKO-PBP2; source: E. coli LMC500, expressed from plasmid (15 uM IPTG), in fixed cells; not shown: mKO (donor construct, pWA004) or mCherry (acceptor construct), N-terminal, kept
T3 sequence (looked up): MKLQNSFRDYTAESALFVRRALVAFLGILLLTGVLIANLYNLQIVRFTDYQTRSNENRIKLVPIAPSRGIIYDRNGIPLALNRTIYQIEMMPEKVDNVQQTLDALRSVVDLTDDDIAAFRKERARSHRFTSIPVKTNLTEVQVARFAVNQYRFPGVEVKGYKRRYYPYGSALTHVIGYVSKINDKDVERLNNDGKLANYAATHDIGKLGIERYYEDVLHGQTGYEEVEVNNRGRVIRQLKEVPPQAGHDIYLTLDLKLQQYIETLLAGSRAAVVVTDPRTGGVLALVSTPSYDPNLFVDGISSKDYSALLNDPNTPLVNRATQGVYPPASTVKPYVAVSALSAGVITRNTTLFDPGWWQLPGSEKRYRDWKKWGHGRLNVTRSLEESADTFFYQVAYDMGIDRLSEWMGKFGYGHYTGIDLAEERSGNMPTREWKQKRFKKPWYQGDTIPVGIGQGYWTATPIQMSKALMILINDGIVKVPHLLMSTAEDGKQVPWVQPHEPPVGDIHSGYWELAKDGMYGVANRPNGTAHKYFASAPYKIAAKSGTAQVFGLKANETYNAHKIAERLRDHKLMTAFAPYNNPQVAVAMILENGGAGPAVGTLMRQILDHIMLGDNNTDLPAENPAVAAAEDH

[2] = target: the molecule itself

- EfA (acceptor FRET efficiency) (mKO-^MalF37PBP2): 8.2%
- EfA (acceptor FRET efficiency) (mKO-PBP2^L61R): 10.8%
- EfA (acceptor FRET efficiency) [1]: 12.7%
B1: RodA (wild type), fused to mCherry or to mKO (enzyme, E. coli, UniProt P0ABG7 1-370, looked up)
chain: MTDNPNKKTFWDKVHLDPTMLLILLALLVYSALVIWSASGQDIGMMERKIGQIAMGLVIMVVMAQIPPRVYEGWAPYLYIICIILLVAVDAFGAISKGAQRWLDLGIVRFQPSEIAKIAVPLMVARFINRDVCPPSLKNTGIALVLIFMPTLLVAAQPDLGTSILVALSGLFVLFLSGLSWRLIGVAVVLVAAFIPILWFFLMHDYQRQRVMMLLDPESDPLGAGYHIIQSKIAIGSGGLRGKGWLHGTQSQLEFLPERHTDFIFAVLAEELGLVGILILLALYILLIMRGLWIAARAQTTFGRVMAGGLMLILFVYVFVNIGMVSGILPVVGVPLPLVSYGGSALIVLMAGFGIVMSIHTHRKMLSKSV
notes: RodA, peptidoglycan glycosyltransferase of the E. coli elongasome; wild-type rodA gene; mCh-RodA in all others; also called mCh-RodA; mKO-RodA; source: E. coli LMC500, expressed from plasmid (15 uM IPTG), in fixed cells; not shown: mCherry (acceptor construct, pSAV047-RodA) or mKO (donor construct, pXL56), N-terminal, kept
- EfA (acceptor FRET efficiency) [2]: 5.5%
